Results published in patent US20260167710A1 (GlaxoSmithKline, published 2026).

Assays:
human IL-33 [1] = molecular target: T1, human IL-33 (human, Biotinylated in Example 2; the site is not stated.); assay: cell-based or functional assay
T1 chain: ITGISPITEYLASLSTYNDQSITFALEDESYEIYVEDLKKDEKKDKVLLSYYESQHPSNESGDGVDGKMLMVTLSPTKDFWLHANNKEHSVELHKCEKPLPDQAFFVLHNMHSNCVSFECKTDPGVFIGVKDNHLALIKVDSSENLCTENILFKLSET

human IL-33 [2] = molecular target: T1, human IL-33; assay: cell-based or functional assay
[3] = molecular target: T2, human complement component C1q (human, UniProt P02745 23-245; P02746 28-253; P02747 29-245); assay: SPR (ProteOn XPR36), antibody immobilised by amine coupling, C1q as analyte, equilibrium fit, 25 C
T2 construct: also called human recombinant soluble complement C1q; Sigma #C1740-5 mg

human IL-33 [4] = molecular target: T1, human IL-33; assay: cell-based or functional assay
human IL-33 [5] = molecular target: T1, human IL-33; assay: MSD-SET solution equilibrium titration, 25 C
hFcgRI = molecular target: T3, hFcgRI (human, UniProt P12314 16-292); assay: SPR (ProteOn XPR36), anti-poly-histidine IgG surface, antibody as analyte, equilibrium fit, 25 C
T3 construct: extracellular domain; the chip carried an anti-poly-histidine IgG; also called recombinant soluble human Fc gamma receptor I

hFcgRIIIa (F158) = molecular target: T4, hFcgRIIIa (F158) (human, UniProt P08637 17-208); assay: as above
T4 construct: extracellular domain

hFcgRIIa (H131) = molecular target: T5, hFcgRIIa (H131) (human, UniProt P12318 34-217); assay: as above
T5 construct: extracellular domain; His at position 131 (mature numbering as commonly used)
T5 sequence (looked up): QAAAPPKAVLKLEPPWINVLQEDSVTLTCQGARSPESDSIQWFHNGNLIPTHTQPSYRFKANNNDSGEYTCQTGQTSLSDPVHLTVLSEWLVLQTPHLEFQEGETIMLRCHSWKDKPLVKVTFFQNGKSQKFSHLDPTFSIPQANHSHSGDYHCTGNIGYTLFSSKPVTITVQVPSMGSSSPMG

hFcgRIIb = molecular target: T6, hFcgRIIb (human, UniProt P31994 43-217); assay: as above
T6 construct: extracellular domain
T6 sequence (looked up): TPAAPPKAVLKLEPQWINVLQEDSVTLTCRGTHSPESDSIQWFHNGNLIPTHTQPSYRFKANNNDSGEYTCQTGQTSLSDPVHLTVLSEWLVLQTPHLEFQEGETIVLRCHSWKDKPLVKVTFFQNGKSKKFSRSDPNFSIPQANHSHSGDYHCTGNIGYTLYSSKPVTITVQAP

hFcgRIIIa (V158) = molecular target: T7, hFcgRIIIa (V158) (human, UniProt P08637 17-208); assay: as above
T7 construct: extracellular domain

hFcgRIIa (R131) = molecular target: T8, hFcgRIIa (R131) (human, UniProt P12318 34-217); assay: as above
T8 construct: extracellular domain
T8 sequence (looked up): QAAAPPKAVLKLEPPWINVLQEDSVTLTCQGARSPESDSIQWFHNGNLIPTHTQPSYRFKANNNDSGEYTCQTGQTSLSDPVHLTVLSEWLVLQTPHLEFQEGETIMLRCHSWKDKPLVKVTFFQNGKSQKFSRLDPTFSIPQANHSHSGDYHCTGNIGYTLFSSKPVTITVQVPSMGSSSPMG

[6] = molecular target: T9, human recombinant neonatal receptor (FcRn) (human, UniProt P55899 24-297; P61769 21-119); assay: SPR (ProteOn XPR36), antibody captured by protein L, FcRn as analyte, equilibrium fit, pH 6.0, 25 C
T9 construct: also called human FcRn; human recombinant soluble FcRn

human IL-1b = molecular target: T10, human IL-1b (human, UniProt P01584 117-269); assay: BLI (Octet RED384), antibody on protein A sensors, single shot
T10 construct: also called IL-1b (R&D Systems #201-LB)

human IL-1a = molecular target: T11, human IL-1a (human, UniProt P01583 113-271); assay: as above
T11 construct: also called IL-1a (R&D Systems #200-LA)
T11 sequence (looked up): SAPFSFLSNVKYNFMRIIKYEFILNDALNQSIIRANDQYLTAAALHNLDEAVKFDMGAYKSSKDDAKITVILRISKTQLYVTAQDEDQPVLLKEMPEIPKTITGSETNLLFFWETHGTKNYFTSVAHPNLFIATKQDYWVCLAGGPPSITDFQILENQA

T4 sequence (P08637 17-208): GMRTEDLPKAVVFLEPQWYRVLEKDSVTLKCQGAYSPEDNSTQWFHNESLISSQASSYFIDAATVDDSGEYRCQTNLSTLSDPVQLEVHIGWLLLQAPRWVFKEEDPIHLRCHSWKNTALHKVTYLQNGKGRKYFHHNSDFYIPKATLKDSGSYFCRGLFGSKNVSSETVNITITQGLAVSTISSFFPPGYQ
T7 sequence (P08637 17-208 F176V): as the sequence (P08637 17-208) above, with F160V counted along it
T2 sequence (P02745 23-245 limits assumed, chain 1 of 3): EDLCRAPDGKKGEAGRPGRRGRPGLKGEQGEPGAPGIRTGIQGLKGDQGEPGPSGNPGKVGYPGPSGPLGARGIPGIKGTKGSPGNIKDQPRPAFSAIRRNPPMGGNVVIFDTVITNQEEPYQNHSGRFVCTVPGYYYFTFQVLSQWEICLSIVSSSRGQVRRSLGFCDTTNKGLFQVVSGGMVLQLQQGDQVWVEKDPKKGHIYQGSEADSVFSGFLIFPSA
T2 sequence (P02746 28-253 limits assumed, chain 2 of 3): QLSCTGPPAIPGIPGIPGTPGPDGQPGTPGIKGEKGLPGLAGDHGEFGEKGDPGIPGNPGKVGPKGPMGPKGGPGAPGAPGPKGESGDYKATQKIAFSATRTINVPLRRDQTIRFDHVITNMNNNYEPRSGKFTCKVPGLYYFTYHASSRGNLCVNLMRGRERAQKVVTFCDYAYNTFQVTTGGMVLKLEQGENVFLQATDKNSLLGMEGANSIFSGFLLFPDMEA
T2 sequence (P02747 29-245 limits assumed, chain 3 of 3): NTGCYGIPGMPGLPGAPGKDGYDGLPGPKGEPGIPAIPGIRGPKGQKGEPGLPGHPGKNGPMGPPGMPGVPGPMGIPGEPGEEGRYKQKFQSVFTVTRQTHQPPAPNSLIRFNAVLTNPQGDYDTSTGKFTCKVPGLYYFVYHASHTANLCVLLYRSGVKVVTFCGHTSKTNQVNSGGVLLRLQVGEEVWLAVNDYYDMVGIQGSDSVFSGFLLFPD
T9 sequence (P55899 24-297 limits assumed, chain 1 of 2): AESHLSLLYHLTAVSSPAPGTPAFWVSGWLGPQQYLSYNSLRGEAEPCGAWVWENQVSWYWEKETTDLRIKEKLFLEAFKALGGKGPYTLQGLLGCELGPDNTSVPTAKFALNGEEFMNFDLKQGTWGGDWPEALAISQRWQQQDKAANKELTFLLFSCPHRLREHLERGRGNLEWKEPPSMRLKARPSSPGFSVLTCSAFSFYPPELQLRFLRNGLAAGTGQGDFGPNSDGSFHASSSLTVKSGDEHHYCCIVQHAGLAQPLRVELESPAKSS
T9 sequence (P61769 21-119 limits assumed, chain 2 of 2): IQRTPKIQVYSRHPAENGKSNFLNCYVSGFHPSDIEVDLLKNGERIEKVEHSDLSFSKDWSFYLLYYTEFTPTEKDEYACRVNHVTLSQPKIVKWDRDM
T3 sequence (P12314 16-292): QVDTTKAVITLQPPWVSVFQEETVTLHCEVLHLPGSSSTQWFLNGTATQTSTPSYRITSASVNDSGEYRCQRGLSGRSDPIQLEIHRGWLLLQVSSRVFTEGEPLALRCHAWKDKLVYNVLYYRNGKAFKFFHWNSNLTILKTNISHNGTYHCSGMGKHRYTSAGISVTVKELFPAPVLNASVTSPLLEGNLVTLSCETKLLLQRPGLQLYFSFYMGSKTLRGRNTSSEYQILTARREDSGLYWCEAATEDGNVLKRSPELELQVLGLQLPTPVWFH

B1: 22A06-458 (antibody, human IgG1, kappa)
heavy: QVQLVQSGAEVKKPGASVKVSCKASGYTFISYGMHWVRQAPGQGLEWMGEINPHGGSTSYAQKFKGRVTMTRDTSTSTVYMELSSLRSEDTAVYYCARPSAAYSHYLGIDLWGRGTLVTVSSASTKGPSVFPLAPSSKSTSGGTAALGCLVKDYFPEPVTVSWNSGALTSGVHTFPAVLQSSGLYSLSSVVTVPSSSLGTQTYICNVNHKPSNTKVDKKVEPKSCDKTHTCPPCPAPELLGGPSVFLFPPKPKDTLYITREPEVTCVVVDVSHEDPEVKFNWYVDGVEVHNAKTKPREEQYNSTYRVVSVLTVLHQDWLNGKEYKCKVSNKALPAPIEKTISKAKGQPREPQVYTLPPSRDELTKNQVSLTCLVKGFYPSDIAVEWESNGQPENNYKTTPPVLDSDGSFFLYSKLTVDKSRWQQGNVFSCSVMHEALHNHYTQKSLSLSPGK
light: DIQMTQSPSSVSASVGDRVTITCRASQGISSWLAWYQQKPGKAPKLLIYAASRLQSGVPSRFSGSGSGTDFTLTISSLQPEDFATYYCQQANVFPLTFGGGTKVEIKRTVAAPSVFIFPPSDEQLKSGTASVVCLLNNFYPREAKVQWKVDNALQSGNSQESVTEQDSKDSTYSLSSTLTLSKADYEKHKVYACEVTHQGLSSPVTKSFNRGEC
Human IL-33 [1]
  IC50, inhibition of 30 ng/mL IL-33/IL-12 induced IFN-γ secretion from whole blood, pre-complexed, Mean: 3.24 nM
  IC50, inhibition of 30 ng/mL IL-33/IL-12 induced IFN-γ secretion from whole blood, pre-complexed, donor #91232: 1.47 nM
  IC50, inhibition of 30 ng/mL IL-33/IL-12 induced IFN-γ secretion from whole blood, pre-complexed, donor #91845: 3.88 nM
  IC50, inhibition of 30 ng/mL IL-33/IL-12 induced IFN-γ secretion from whole blood, pre-complexed, donor #92023: 2.48 nM
  IC50, inhibition of 30 ng/mL IL-33/IL-12 induced IFN-γ secretion from whole blood, pre-complexed, donor #92187: 4.92 nM
  IC50, inhibition of 30 ng/mL IL-33/IL-12 induced IFN-γ secretion from whole blood, pre-complexed, donor #92257: 1.75 nM
  IC50, inhibition of 30 ng/mL IL-33/IL-12 induced IFN-γ secretion from whole blood, pre-complexed, donor #92258: 4.93 nM
  pIC50, inhibition of 30 ng/mL IL-33/IL-12 induced IFN-γ secretion from whole blood, pre-complexed, Mean: 8.53
  pIC50, inhibition of 30 ng/mL IL-33/IL-12 induced IFN-γ secretion from whole blood, pre-complexed, donor #91232: 8.83
  pIC50, inhibition of 30 ng/mL IL-33/IL-12 induced IFN-γ secretion from whole blood, pre-complexed, donor #91845: 8.41
  pIC50, inhibition of 30 ng/mL IL-33/IL-12 induced IFN-γ secretion from whole blood, pre-complexed, donor #92023: 8.6
  pIC50, inhibition of 30 ng/mL IL-33/IL-12 induced IFN-γ secretion from whole blood, pre-complexed, donor #92187: 8.3
  pIC50, inhibition of 30 ng/mL IL-33/IL-12 induced IFN-γ secretion from whole blood, pre-complexed, donor #92257: 8.75
  pIC50, inhibition of 30 ng/mL IL-33/IL-12 induced IFN-γ secretion from whole blood, pre-complexed, donor #92258: 8.3
Human IL-33 [2]
  IC50, inhibition of 10 ng/mL human IL-33 induced IL-6 production, mouse bone marrow-derived mast cells: ~0.566 nM
  IC50, inhibition of 10 ng/mL human IL-33 induced IL-13 production, mouse bone marrow-derived mast cells: ~0.567 nM
  IC50, inhibition of 10 ng/mL human IL-33 induced IL-18 production, mouse bone marrow-derived mast cells: ~0.631 nM
  IC50, inhibition of 10 ng/mL human IL-33 induced TNF-α production, mouse bone marrow-derived mast cells: ~0.581 nM
  pIC50, inhibition of 10 ng/mL human IL-33 induced IL-6 production, mouse bone marrow-derived mast cells: ~9.25
  pIC50, inhibition of 10 ng/mL human IL-33 induced IL-13 production, mouse bone marrow-derived mast cells: ~9.25
  pIC50, inhibition of 10 ng/mL human IL-33 induced IL-18 production, mouse bone marrow-derived mast cells: ~9.2
  pIC50, inhibition of 10 ng/mL human IL-33 induced TNF-α production, mouse bone marrow-derived mast cells: ~9.24
[3]
  Kd: 213 nM
Human IL-33 [4]
  IC50, inhibition of IL-33 (5.0 nM) induced β-hexosaminidase release from basophils, pre-complexed, Mean: 2.03 nM
  IC50, inhibition of IL-33 (5.0 nM) induced β-hexosaminidase release from basophils, pre-complexed, donor #33235: 1.39 nM
  IC50, inhibition of IL-33 (5.0 nM) induced β-hexosaminidase release from basophils, pre-complexed, donor #90290: 4.53 nM
  IC50, inhibition of IL-33 (5.0 nM) induced β-hexosaminidase release from basophils, pre-complexed, donor #90356: 1.23 nM
  IC50, inhibition of IL-33 (5.0 nM) induced β-hexosaminidase release from basophils, pre-complexed, donor #90541: 0.97 nM
  pIC50, inhibition of IL-33 (5.0 nM) induced β-hexosaminidase release from basophils, pre-complexed, Mean: 8.78
  pIC50, inhibition of IL-33 (5.0 nM) induced β-hexosaminidase release from basophils, pre-complexed, donor #33235: 8.86
  pIC50, inhibition of IL-33 (5.0 nM) induced β-hexosaminidase release from basophils, pre-complexed, donor #90290: 8.34
  pIC50, inhibition of IL-33 (5.0 nM) induced β-hexosaminidase release from basophils, pre-complexed, donor #90356: 8.91
  pIC50, inhibition of IL-33 (5.0 nM) induced β-hexosaminidase release from basophils, pre-complexed, donor #90541: 9.01
Human IL-33 [5]
  Kd: 0.0033 nM
hFcgRI
  Kd: 24.3 nM
hFcgRIIIa (F158)
  Kd: 987 nM
hFcgRIIa (H131)
  Kd: 574 nM
hFcgRIIb
  Kd: 5220 nM
hFcgRIIIa (V158)
  Kd: 215 nM
hFcgRIIa (R131)
  Kd: 502 nM
[6]
  Kd: 25 nM
Human IL-1b
  binding result: no binding (tested: 100 nM)
Human IL-1a
  binding result: no binding (tested: 100 nM)
